Where a chain is given by its changes, count along the chain named. Values belong to the binder of their own block, whether it stands above or below them.
Target: T1, human transferrin receptor (recombinant, for surface plasmon resonance) (human, UniProt P02786 89-760)
T1 construct: also called huTfR; human transferrin receptor-biotinylated
Assay: SPR 25C

T1 sequence (P02786 89-760 limits assumed): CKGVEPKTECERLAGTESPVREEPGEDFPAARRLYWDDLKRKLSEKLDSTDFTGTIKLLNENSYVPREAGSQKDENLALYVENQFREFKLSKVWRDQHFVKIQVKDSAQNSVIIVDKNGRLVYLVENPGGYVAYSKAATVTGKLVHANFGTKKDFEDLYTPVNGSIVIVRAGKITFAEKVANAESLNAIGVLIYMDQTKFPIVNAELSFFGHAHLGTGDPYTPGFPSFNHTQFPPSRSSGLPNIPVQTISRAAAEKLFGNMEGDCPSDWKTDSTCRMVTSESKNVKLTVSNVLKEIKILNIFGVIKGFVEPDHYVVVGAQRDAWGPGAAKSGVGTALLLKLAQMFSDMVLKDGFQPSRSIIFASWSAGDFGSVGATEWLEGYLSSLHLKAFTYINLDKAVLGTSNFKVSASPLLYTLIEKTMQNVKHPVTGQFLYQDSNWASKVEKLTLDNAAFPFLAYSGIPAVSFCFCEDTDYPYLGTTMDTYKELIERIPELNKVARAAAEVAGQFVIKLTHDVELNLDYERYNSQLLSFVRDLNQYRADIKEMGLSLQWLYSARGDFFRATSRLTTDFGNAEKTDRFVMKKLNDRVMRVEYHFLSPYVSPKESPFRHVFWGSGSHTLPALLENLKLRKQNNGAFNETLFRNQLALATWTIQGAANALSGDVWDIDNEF

B2: 2/99 VH7/VL3 (antibody, V domains shown)
VH: QQLVETGGGLIQPGGSLRLSCAASGFSLSSYAMSWVRQAPGKGLEWIGYIWSGGSTDYASWAKGRFTISRDNSKNTLYLQMNSLRAEDTAVYYCARRYGTSYPDYGDANGFDPWGQGTLVTVSS
VL: AYQMTQSPSSLSASVGDRVTITCRASQSISSYLNWYQQKPGKAPKLLIYRASTLASGVPSRFSGSGSGTDFTLTISSLQPEDFATYYCQQSYSSSNVDNTFGGGTKVEIK
koff: 0.00145 s⁻¹

B3: 2/99 VH8/VL3 (antibody, V domains shown)
VH: QQLVETGGGLIQPGGSLRLSCAASGFSLSSYAMSWVRQAPGKGLEWIGYIWSGGSTDYASWAKGRFTISKTSTTLYLQMNSLRAEDTAVYYCARRYGTSYPDYGDANGFDPWGQGTLVTVSS
VL: B2 VL
koff: 0.001 s⁻¹

B4: 2/99 VH2/VL4 (antibody, V domains shown)
VH: EVQLVETGGGLIQPGGSLRLSCAASGFSLSSYAMSWVRQAPGKGLEWVGYIWSGGSTDYADSVKGRFTISRDNSKNTLYLQMNSLRAEDTAVYYCARRYGTSYPDYGDANGFDPWGQGTLVTVSS
VL: B2 VL with N34S
koff: 0.00263 s⁻¹

B5: 2/99 VH7/VL4 (antibody, V domains shown)
VH: B2 VH
VL: B2 VL with N34S
koff: 0.00125 s⁻¹

B7: 2/99 VH9/VL3 (antibody, V domains shown)
VH: B2 VH with V4L, T6S, I11V, S27T, L28F, I47V, S60D, W61S, A62V, R96K
VL: B2 VL
koff: 0.00417 s⁻¹

B8: 2/99 VH15/VL3 (antibody, V domains shown)
VH: QQLQESGPGLVKPSETLSLTCTVSGFSLSSYAMSWVRQPPGKGLEWIGYIWSGGSTDYNPSLKSRVTISVDTSKNQVSLKLSSVTAADTAVYYCARRYGTSYPDYGDANGFDPWGQGTLVTVSS
VL: B2 VL
koff: 0.00207 s⁻¹

B10: 2/99 VH12/VL3 (antibody, V domains shown)
VH: QVQLQESGPGLVKPSETLSLTCTVSGFSLSSYAMSWIRQPPGKGLEWIGYIWSGGSTDYNPSLKSRVTISVDTSKNQFSLKLSSVTAADTAVYYCARRYGTSYPDYGDANGFDPWGQGTLVTVSS
VL: B2 VL
koff: 0.00586 s⁻¹

B12: 2/99 VH6/VL4 (antibody, V domains shown)
VH: B2 VH with S60D, W61S, A62V
VL: B2 VL with N34S
koff: 0.00187 s⁻¹

B14: 2/99 VH13/VL3 (antibody, V domains shown)
VH: B10 VH with F78V
VL: B2 VL
koff: 0.00277 s⁻¹

B15: 2/99 VH2/VL3 (antibody, V domains shown)
VH: B4 VH
VL: B2 VL
koff: 0.00384 s⁻¹

B18: 2/99 VH1/VL4 (antibody, V domains shown)
VH: B2 VH with Q1V, I47V, S60D, W61S, A62V
VL: B2 VL with N34S
koff: 0.00256 s⁻¹

B19: 2/99 VH5/VL3 (antibody, V domains shown)
VH: B2 VH with Q2S, L3M, V4E, I47V, S60D, W61S, A62V, Q116P
VL: B2 VL
koff: 0.00316 s⁻¹

B21: 2/99 VH1/VL3 (antibody, V domains shown)
VH: B2 VH with Q1V, I47V, S60D, W61S, A62V
VL: B2 VL
koff: 0.00431 s⁻¹

B23: 2/99 VH6/VL3 (antibody, V domains shown)
VH: B2 VH with S60D, W61S, A62V
VL: B2 VL
koff: 0.00282 s⁻¹

B24: 2/99 VH5/VL4 (antibody, V domains shown)
VH: B2 VH with Q2S, L3M, V4E, I47V, S60D, W61S, A62V, Q116P
VL: B2 VL with N34S
koff: 0.00238 s⁻¹

B26: 2/99 VH11/VL3 (antibody, V domains shown)
VH: B2 VH with V4L, T6S, I11V, I47V, S60D, W61S, A62V
VL: B2 VL
koff: 0.00565 s⁻¹

Continued, values first:

koff: 0.00138 s⁻¹
B1: 2/99 VH21/VL2 (antibody, V domains shown)
VH: B8 VH with Q2S, L3M, E15Q, V36I, P39H, N59A, P60S, S61W, L62A
VL: B2 VL with A1D, Y2I

koff: 0.000783 s⁻¹
B6: 2/99 VH23-DANG/VL3 (antibody, V domains shown)
VH: QSMQESGPGLVKPSQTLSLTCTVSGFSLSSYAMSWIRQHPGKGLEWIGYIWSGGSTDYASWAKSRVTISKTSTTVSLKLSSVTAADTAVYYCARRYGTSYPDYGDANGFDPWGQGTLVTVSS
VL: B2 VL

koff: 0.00194 s⁻¹
B9: 2/99 VH21/VL3 (antibody, V domains shown)
VH: B8 VH with Q2S, L3M, E15Q, V36I, P39H, N59A, P60S, S61W, L62A
VL: B2 VL

koff: 0.00173 s⁻¹
B11: 2/99 VH16/VL3 (antibody, V domains shown)
VH: B8 VH with Q116P
VL: B2 VL

koff: 0.00126 s⁻¹
B13: 2/99 VH22/VL2 (antibody, V domains shown)
VH: B8 VH with Q2S, L3M, E15Q, P39H, N59A, P60S, S61W, L62A
VL: B2 VL with A1D, Y2I

koff: 0.000843 s⁻¹
B16: 2/99 VH17/VL3 (antibody, V domains shown)
VH: B8 VH with V70K, Q116P
VL: B2 VL

koff: 0.00665 s⁻¹
B17: 2/99 VH18/VL3 (antibody, V domains shown)
VH: B10 VH with E16Q, P40H, N60A
VL: B2 VL

koff: 0.001 s⁻¹
B20: 2/99 VH19/VL3 (antibody, V domains shown)
VH: B8 VH with Q2S, L3M, E15Q, V36I, P39H, N59A, V77F
VL: B2 VL

koff: 0.00143 s⁻¹
B22: 2/99 VH22/VL3 (antibody, V domains shown)
VH: B8 VH with Q2S, L3M, E15Q, P39H, N59A, P60S, S61W, L62A
VL: B2 VL

koff: 0.00715 s⁻¹
B25: 2/99 VH20/VL3 (antibody, V domains shown)
VH: B8 VH with Q2S, L3M, E15Q, V36I, P39H, N59A
VL: B2 VL

Source: patent publication US20180291110A1 (Hoffmann-La Roche, published 2018)
